Four molecules from patent US20220119534A1 (DRAGONFLY THERAPEUTICS, published 2022) can be followed below.

Experiment [1] deals with T1, mFc-cNKG2D (cynomolgus monkey, UniProt P61252 73-216).
T1 construct: extracellular domain; Made in house (Dragonfly Tx); also called recombinant cyno NKG2D extracellular domain (ECD); mFc-tagged cyno NKG2D dimer; not shown: mouse Fc tag
T1 sequence (looked up): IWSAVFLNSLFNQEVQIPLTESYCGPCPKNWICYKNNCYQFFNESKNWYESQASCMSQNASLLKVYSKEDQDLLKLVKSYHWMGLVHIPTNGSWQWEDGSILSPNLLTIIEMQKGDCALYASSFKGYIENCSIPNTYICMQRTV
The experiment can be described thus: SPR Biacore 37 C; mFc-tagged cyno NKG2D dimer, TriNKET as analyte; 1:1 kinetic fit; average of 4. Background: SPR reads the build-up and loss of mass on a sensor chip optically.

In experiment [2] the target is T2, Human CD32b (human, UniProt P31994 46-217, limits assumed, biotinylated).
T2 construct: Bought recombinant receptor; also called hFcγRIIb
T2 sequence (looked up): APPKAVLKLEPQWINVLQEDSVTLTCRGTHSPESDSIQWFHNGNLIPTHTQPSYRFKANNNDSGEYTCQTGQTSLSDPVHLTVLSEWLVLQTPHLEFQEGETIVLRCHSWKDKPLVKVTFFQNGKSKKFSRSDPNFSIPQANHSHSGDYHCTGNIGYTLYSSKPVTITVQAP
The experiment can be described thus: SPR, steady state fit.

In experiment [3] the target is T3, mFc-hNKG2D (human, UniProt P26718 73-216).
T3 construct: extracellular domain; Recombinant mFc-tagged NKG2D dimer, made in house; also called human NKG2D; not shown: mouse Fc tag
T3 sequence (looked up): T1 sequence (looked up) with N43D, I133T
The experiment can be described thus: SPR; sample after 4 weeks at 40 C in HST pH 6.0.

In experiment [4] the target is T4, Human CD16a V158 (human, UniProt P08637 17-208, biotinylated).
T4 construct: Bought recombinant receptor; also called hCD16a (V158); hFcγRIIIa V158
The experiment can be described thus: SPR; sample after 4 weeks at 40 C in HST pH 6.0.

The target of experiment [5] is T5, Human CLEC12A-His (human, UniProt Q5QGZ9 65-265).
T5 construct: Recombinant soluble protein made in house; also called hCLEC12A-His; hCLEC12A; not shown: His tag
T5 sequence: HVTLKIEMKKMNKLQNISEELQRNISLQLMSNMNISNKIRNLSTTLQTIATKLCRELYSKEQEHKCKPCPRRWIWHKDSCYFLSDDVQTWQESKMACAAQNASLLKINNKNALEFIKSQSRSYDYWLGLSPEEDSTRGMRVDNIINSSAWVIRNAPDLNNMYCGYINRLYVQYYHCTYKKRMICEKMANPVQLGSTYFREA
The experiment can be described thus: SPR; sample after 4 weeks at 40 C in HST pH 6.0.

Experiment [6] has as its target T3, mFc-hNKG2D. The experiment can be described thus: SPR; sample after low pH hold.
The target in experiment [7] is T4, Human CD16a V158. The experiment is described as follows: SPR; sample after low pH hold.
Experiment [8] concerns the target T5, Human CLEC12A-His. The experiment can be described thus: SPR; sample after low pH hold.
Experiment [9] addresses T6, Human CLEC12A expressed on cells (Ba/F3-hCLEC12A, PL21, HL60) (human, UniProt Q5QGZ9 1-265).
T6 sequence: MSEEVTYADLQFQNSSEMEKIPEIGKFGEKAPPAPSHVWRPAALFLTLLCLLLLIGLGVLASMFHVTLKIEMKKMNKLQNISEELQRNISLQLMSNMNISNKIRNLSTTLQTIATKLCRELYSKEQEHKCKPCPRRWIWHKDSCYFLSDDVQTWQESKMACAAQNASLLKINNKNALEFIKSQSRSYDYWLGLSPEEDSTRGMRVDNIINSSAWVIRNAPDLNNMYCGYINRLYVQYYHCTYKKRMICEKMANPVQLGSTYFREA
The experiment is described as follows: cell-based or functional assay.

The target of experiment [10] is T7, Human CLEC12A-His (recombinant, K244 WT) (human, UniProt Q5QGZ9 65-265).
T7 construct: Made in house (Dragonfly Tx); also called hCLEC12A; hCLEC12A-His; not shown: His tag
T7 sequence: T5 sequence
The experiment is described as follows: SPR, two-state fit; control sample.

Experiment [11] addresses T8, De-glycosylated human CLEC12A (human, UniProt Q5QGZ9 65-265, treated with PNGaseF (N-linked glycans removed)).
T8 construct: Same recombinant antigen as m2 after PNGaseF; also called De-glycosylated CLEC12A
T8 sequence: T5 sequence
The experiment is described as follows: SPR, two-state fit (ka1).
Description: (§1) Briefly, human Fc specific antibodies were covalently immobilized at a density ˜8000-10000 resonance units (RU) on carboxy methyl dextran matrix of a CM5 biosensor chip via amine-coupling chemistry to create an anti-hFc IgG chip. […] Association was monitored for 300 seconds and dissociation was monitored for 600 seconds. Surfaces were regenerated between cycles with three pulses of 10 mM glycine-HCl, pH 1.7 injected for 20 seconds at 100 μl/min. HBS-EP+ (1×) with 0.1 mg/ml BSA was used as running buffer throughout the experiment. Experiments were performed at physiological temperature of 37° C. To obtain kinetic rate constants and overall binding affinity, double-referenced data were fit to a two-state kinetic model using Biacore 8K Insight Evaluation software (Cytiva).

Experiment [12] concerns the target T9, De-sialylated human CLEC12A (human, UniProt Q5QGZ9 65-265, treated with neuraminidase (terminal sialic acids removed)).
T9 construct: Same recombinant antigen as m2 after neuraminidase; also called De-sialylated CLEC12A
T9 sequence: T5 sequence
The experiment is described as follows: SPR, two-state fit (ka1).
Description: as §1

For experiment [13], the target named is T10, ECDHDC1 (HuProt array JHU25034.P240F11) (human).
T10 construct: Name as printed; may be a misprint of a gene name
The experiment can be described thus: HuProt human proteome microarray, AB0089 at 1 µg/ml.
Excerpt: (§2) An array consisting of 22,000 full-length human proteins are expressed in S. cerevisiae yeast, purified, and are subsequently printed in duplicate on a microarray glass slide that allows thousands of interactions to be profiled in a high-throughput manner. […] S score is the difference of Z score of a given protein and the one rank next to it.

Experiment [14] concerns the target BC089418 (HuProt array JHU16002.P168E09) (human). Described as above.
Excerpt: as §2
Experiment [15] concerns the target T7, Human CLEC12A-His (recombinant, K244 WT). Described as above.
Excerpt: as §2
The target of experiment [16] is T11, recombinant human CLEC12A-His (human, UniProt Q5QGZ9 65-265).
T11 construct: also called hCLEC12A-His; hCLEC12A
T11 sequence: T5 sequence
The experiment can be described thus: SPR.

Numbering of substitutions follows the chain as printed. In names and notes the source's numbering stands. Several values for one entry are separate records, joined by “and”; a condition that tells them apart may be missing. Equal values may be shown once.

T4 sequence (P08637 17-208 F176V limits assumed): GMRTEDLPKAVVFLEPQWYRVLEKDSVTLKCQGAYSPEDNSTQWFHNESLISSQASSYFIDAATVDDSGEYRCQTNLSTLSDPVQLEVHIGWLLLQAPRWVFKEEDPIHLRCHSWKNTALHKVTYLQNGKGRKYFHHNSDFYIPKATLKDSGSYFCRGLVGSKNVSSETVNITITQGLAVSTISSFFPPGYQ
T10 sequence (Q9NTX5 whole entry): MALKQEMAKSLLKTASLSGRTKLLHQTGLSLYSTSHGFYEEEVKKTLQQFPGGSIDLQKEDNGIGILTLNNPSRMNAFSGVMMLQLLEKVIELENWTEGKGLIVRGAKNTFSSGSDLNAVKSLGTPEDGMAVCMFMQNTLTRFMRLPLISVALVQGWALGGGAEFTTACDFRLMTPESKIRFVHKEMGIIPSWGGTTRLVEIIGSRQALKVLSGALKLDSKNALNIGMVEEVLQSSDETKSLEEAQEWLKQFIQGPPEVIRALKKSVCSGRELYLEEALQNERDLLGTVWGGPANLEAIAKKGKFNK

B1: F3'-1602 TriNKET (bispecific antibody, human IgG1, kappa)
chain: QLQLQESGPGLVKPSETLSLTCTVSGFSLTNYGLHWIRQPPGKCLEWIGVIWSGGKTDYNPSLKSRVTISKDTSKNQFSLKLSSVQAADTAVYYCAKYDYDDSLDYWGQGTLVTVSSGGGGSGGGGSGGGGSGGGGSDIQMTQSPSSLSASVGDRVTITCHASQNINFWLSWYQQKPGKAPKLLIYEASNLHTGVPSRFSGSGSGTRFTLTISSLQPEDIATYYCQQSHSYPLTFGCGTKLEIKGSDKTHTCPPCPAPELLGGPSVFLFPPKPKDTLMISRTPEVTCVVVDVSHEDPEVKFNWYVDGVEVHNAKTKPREEQYNSTYRVVSVLTVLHQDWLNGKEYKCKVSNKALPAPIEKTISKAKGQPREPRVYTLPPCRDELTKNQVSLTCLVKGFYPSDIAVEWESNGQPENNYKTTPPVLVSDGSFTLYSKLTVDKSRWQQGNVFSCSVMHEALHNHYTQKSLSLSPG
heavy: EVQLVESGGGLVKPGGSLRLSCAASGFTFSSYSMNWVRQAPGKGLEWVSSISSSSSYIYYADSVKGRFTISRDNAKNSLYLQMNSLRAEDTAVYYCARGAPIGAAAGWFDPWGQGTLVTVSSASTKGPSVFPLAPSSKSTSGGTAALGCLVKDYFPEPVTVSWNSGALTSGVHTFPAVLQSSGLYSLSSVVTVPSSSLGTQTYICNVNHKPSNTKVDKKVEPKSCDKTHTCPPCPAPELLGGPSVFLFPPKPKDTLMISRTPEVTCVVVDVSHEDPEVKFNWYVDGVEVHNAKTKPREEQYNSTYRVVSVLTVLHQDWLNGKEYKCKVSNKALPAPIEKTISKAKGQPREPQVCTLPPSRDELTENQVSLTCLVKGFYPSDIAVEWESNGQPENNYKTTPPVLDSDGSFFLYSWLTVDKSRWQQGNVFSCSVMHEALHNHYTQKSLSLSPG
light: DIQMTQSPSSVSASVGDRVTITCRASQGISSWLAWYQQKPGKAPKLLIYAASSLQSGVPSRFSGSGSGTDFTLTISSLQPEDFATYYCQQGVSFPRTFGGGTKVEIKRTVAAPSVFIFPPSDEQLKSGTASVVCLLNNFYPREAKVQWKVDNALQSGNSQESVTEQDSKDSTYSLSSTLTLSKADYEKHKVYACEVTHQGLSSPVTKSFNRGEC
notes: Trispecific F3' format: CLEC12A scFv-Fc paired with NKG2D Fab-Fc; Stressed and control samples of the stability studies are the same molecule; also called AB0237
As a reminder, the koff is the rate constant with which the complex falls apart. As a reminder, the kon is the rate constant with which the complex forms. In experiment [1], B1 came in with a koff of 0.141 s⁻¹ and a kon of 168000 M⁻¹ s⁻¹.

B2: AB0192 TriNKET (other)
chain: EVQLVESGGGVVQPGGSLRLSCAASGFTFNAFGMHWVRQAPGKCLEWVAFISSGSTSIYYANTVKGRFTISRDNSKNTLYLQMNSLRAEDTAVYYCARDGYPTGGAMDYWGQGTSVTVSSGGGGSGGGGSGGGGSGGGGSDIQMTQSPSSLSASVGDRVTITCKASQDIYNYLSWFQQKPGKAPKPLIYRANILVSGVPSRFSGSGSGQDYTFTISSLQPEDIATYYCLQFDAFPFTFGCGTKLEIKGSDKTHTCPPCPAPELLGGPSVFLFPPKPKDTLMISRTPEVTCVVVDVSHEDPEVKFNWYVDGVEVHNAKTKPREEQYNSTYRVVSVLTVLHQDWLNGKEYKCKVSNKALPAPIEKTISKAKGQPREPRVYTLPPCRDELTKNQVSLTCLVKGFYPSDIAVEWESNGQPENNYKTTPPVLVSDGSFTLYSKLTVDKSRWQQGNVFSCSVMHEALHNHYTQKSLSLSPG
heavy: B1 heavy
light: B1 light
notes: the condition stands under assay; also called AB0192 Lot AB0192-005
Usually Kd stands for the constant that tells how readily two partners part at equilibrium. B2: the Kd is 6500 nM and 5600 nM and 5200 nM and 7000 nM in experiment [2]; 602 nM in [3]; 194 nM in experiment [4]; 1.81 nM in [5]; 796 nM in experiment [6]; 180 nM in experiment [7]. The same molecule returned a Kd in experiment [8] of 1.66 nM. Further, the koff in [3] amounted to 0.127 s⁻¹; in [4], 0.0201 s⁻¹; in experiment [5], 0.0014 s⁻¹; in experiment [6] it was 0.142 s⁻¹; in experiment [7], 0.0212 s⁻¹; in experiment [8], 0.00115 s⁻¹. Besides, the kon is 211000 M⁻¹ s⁻¹ in experiment [3]; 103000 M⁻¹ s⁻¹ in experiment [4]; 776000 M⁻¹ s⁻¹ in experiment [5]; 178000 M⁻¹ s⁻¹ in experiment [6]; 118000 M⁻¹ s⁻¹ in [7]; 690000 M⁻¹ s⁻¹ in experiment [8].

B3: AB0089 TriNKET (bispecific antibody, human IgG1, kappa)
chain: B1 chain with S53V, K56A, K71V, Y98G, D101G, S103T, R207D, I220F
heavy: B1 heavy
light: B1 light
notes: F3' format heterodimer of three chains; human IgG1 Fc with EW-RVT and Y349C/S354C mutations; also called AB0089 Lot AB0089-002; CLEC12A TriNKET AB0089
In the case of B3, in [9], the “EC50, lysis of PL21 cells by NK cells, with sMIC-A-Fc” value was determined as 0.26 nM. In experiment [9], the “EC50, lysis of PL21 cells by NK cells, without sMIC-A-Fc” value was determined as 0.32 nM. For the same molecule, the Kd in experiment [10] came out at 0.9 nM. Also, the kon in experiment [11] was 8.96e+06 M⁻¹ s⁻¹; in experiment [12], 2.09e+07 M⁻¹ s⁻¹. Besides, the Z score came to 3.75 in [13], 3.7 in experiment [14] and 151 in [15].

B4: F3'-1602 TriNKET (other)
chain: B1 chain
heavy: B1 heavy
light: B1 light
notes: CLEC12A scFv-Fc, NKG2D A49MI Fab-Fc, human IgG1 Fc; also called AB0237
On to B4, for which, in experiment [16], the Kd worked out at 0.6 nM, the koff was determined as 0.000496 s⁻¹ and the kon was 826000 M⁻¹ s⁻¹.
